Consider 37 molecules from article PMC10786891, “Massively parallel profiling of RNA-targeting CRISPR-Cas13d”.

Numbering of substitutions follows the chain as printed. Numbers in names are those of the source.

T1: EsCas13d, nuclease-dead (Eubacterium siraeum, UniProt B0MS50, R295A;H300A;R849A;H854A)
T1 sequence: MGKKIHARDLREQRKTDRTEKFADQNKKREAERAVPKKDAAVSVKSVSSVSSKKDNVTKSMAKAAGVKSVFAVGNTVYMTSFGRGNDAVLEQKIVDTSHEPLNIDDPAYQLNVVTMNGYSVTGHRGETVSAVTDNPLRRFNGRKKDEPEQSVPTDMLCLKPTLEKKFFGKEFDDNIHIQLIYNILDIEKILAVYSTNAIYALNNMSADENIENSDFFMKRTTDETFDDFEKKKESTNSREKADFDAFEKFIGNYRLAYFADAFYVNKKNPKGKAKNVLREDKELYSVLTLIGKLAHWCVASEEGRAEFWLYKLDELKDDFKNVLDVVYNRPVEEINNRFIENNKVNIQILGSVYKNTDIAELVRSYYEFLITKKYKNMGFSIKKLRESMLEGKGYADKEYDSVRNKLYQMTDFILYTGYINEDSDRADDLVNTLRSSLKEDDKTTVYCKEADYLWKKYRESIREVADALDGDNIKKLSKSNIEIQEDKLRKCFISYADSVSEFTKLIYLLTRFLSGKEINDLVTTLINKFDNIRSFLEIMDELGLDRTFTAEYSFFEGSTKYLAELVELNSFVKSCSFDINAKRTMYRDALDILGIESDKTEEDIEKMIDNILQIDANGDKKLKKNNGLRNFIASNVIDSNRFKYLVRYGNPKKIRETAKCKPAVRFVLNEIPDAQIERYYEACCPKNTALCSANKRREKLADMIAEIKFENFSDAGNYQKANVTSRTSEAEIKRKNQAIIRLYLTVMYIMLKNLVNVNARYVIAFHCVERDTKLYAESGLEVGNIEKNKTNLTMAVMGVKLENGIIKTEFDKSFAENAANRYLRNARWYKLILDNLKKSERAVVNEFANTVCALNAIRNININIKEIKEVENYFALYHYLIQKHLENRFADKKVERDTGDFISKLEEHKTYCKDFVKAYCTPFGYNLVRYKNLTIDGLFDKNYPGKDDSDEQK

B1: target 1 MT 5'PFS CUC 3'PFS UUC (mixed)
RNA 1: CACCCGUGCAAAAAUGCAGGGGUCUAAAACUGAGCGGAUAACCUCUCUAUGG
RNA 2: GGGAAUGGAUCCACAUCUACGAAUUCCUCCCAUAGAGAGGUUAUCCGCUCAUUCAGAUCGGAAGAGCACACGU
B2: target 1 MT 5'PFS GAG 3'PFS CUA (mixed)
RNA 1: B1 RNA 1
RNA 2: B1 RNA 2 with C27G, U28A, C29G, U52C, C54A
B3: target 1 MT 5'PFS GAG 3'PFS UUG (mixed)
RNA 1: B1 RNA 1
RNA 2: B1 RNA 2 with C27G, U28A, C29G, C54G
B4: target 1 MT 5'PFS UUA 3'PFS AAA (mixed)
RNA 1: B1 RNA 1
RNA 2: B1 RNA 2 with C27U, C29A, U52A, U53A, C54A
B5: target 1 MT 5'PFS GUG 3'PFS UAG (mixed)
RNA 1: B1 RNA 1
RNA 2: B1 RNA 2 with C27G, C29G, U53A, C54G
B6: target 1 MT 5'PFS GAG 3'PFS CUG (mixed)
RNA 1: B1 RNA 1
RNA 2: B1 RNA 2 with C27G, U28A, C29G, U52C, C54G
B7: target 1 insG 3' of 14 (mixed)
RNA 1: B1 RNA 1
RNA 2: GGGAAUGGAUCCACAUCUACGAAUUCGUACCAUAGAGAGGGUUAUCCGCUCACCGAGAUCGGAAGAGCACACGU
B8: target 1 MT 5'PFS GUG 3'PFS UAC (mixed)
RNA 1: B1 RNA 1
RNA 2: B1 RNA 2 with C27G, C29G, U53A
B9: target 1 MT 5'PFS CAG 3'PFS AUC (mixed)
RNA 1: B1 RNA 1
RNA 2: B1 RNA 2 with U28A, C29G, U52A
B10: target 1 MT 5'PFS AAC 3'PFS AUU (mixed)
RNA 1: B1 RNA 1
RNA 2: B1 RNA 2 with C27A, U28A, U52A, C54U
B11: target 1 MT 5'PFS GCG 3'PFS CGC (mixed)
RNA 1: B1 RNA 1
RNA 2: B1 RNA 2 with C27G, U28C, C29G, U52C, U53G
B12: target 1 MT 5'PFS UAG 3'PFS CUU (mixed)
RNA 1: B1 RNA 1
RNA 2: B1 RNA 2 with C27U, U28A, C29G, U52C, C54U
B13: target 1 MT 5'PFS GCA 3'PFS CGA (mixed)
RNA 1: B1 RNA 1
RNA 2: B1 RNA 2 with C27G, U28C, C29A, U52C, U53G, C54A
B14: target 1 insG 3' of 11,insC 3' of 5 (mixed)
RNA 1: B1 RNA 1
RNA 2: GGGAAUGGAUCCACAUCUACGAAUUCGUACCAUAGAGAGGUGUAUCCGCCUCACCGAGAUCGGAAGAGCACACGU
B15: target 1 MT 5'PFS GUG 3'PFS UAU (mixed)
RNA 1: B1 RNA 1
RNA 2: B1 RNA 2 with C27G, C29G, U53A, C54U
B16: target 1 MT 5'PFS GAG 3'PFS UUU (mixed)
RNA 1: B1 RNA 1
RNA 2: B1 RNA 2 with C27G, U28A, C29G, C54U
B17: target 1 MT 5'PFS GUA 3'PFS GUC (mixed)
RNA 1: B1 RNA 1
RNA 2: B1 RNA 2 with C27G, C29A, U52G
B18: target 1 MT 5'PFS GCG 3'PFS CGU (mixed)
RNA 1: B1 RNA 1
RNA 2: B1 RNA 2 with C27G, U28C, C29G, U52C, U53G, C54U
B19: target 1 MT 5'PFS CUC 3'PFS UUA (mixed)
RNA 1: B1 RNA 1
RNA 2: B1 RNA 2 with C54A
B20: target 1 MT 5'PFS GUG 3'PFS UAA (mixed)
RNA 1: B1 RNA 1
RNA 2: B1 RNA 2 with C27G, C29G, U53A, C54A
B21: target 1 MT 5'PFS CAG 3'PFS UCG (mixed)
RNA 1: B1 RNA 1
RNA 2: B1 RNA 2 with U28A, C29G, U53C, C54G
B22: target 1 MT 5'PFS CCG 3'PFS UGU (mixed)
RNA 1: B1 RNA 1
RNA 2: B1 RNA 2 with U28C, C29G, U53G, C54U
B23: target 1 MT 5'PFS CAG 3'PFS UCU (mixed)
RNA 1: B1 RNA 1
RNA 2: B1 RNA 2 with U28A, C29G, U53C, C54U
B24: target 1 MT 5'PFS GCG 3'PFS CGG (mixed)
RNA 1: B1 RNA 1
RNA 2: B1 RNA 2 with C27G, U28C, C29G, U52C, U53G, C54G
B25: target 1 MT 5'PFS UUA 3'PFS AAC (mixed)
RNA 1: B1 RNA 1
RNA 2: B1 RNA 2 with C27U, C29A, U52A, U53A
B26: target 1 MT 5'PFS CAG 3'PFS AAC (mixed)
RNA 1: B1 RNA 1
RNA 2: B1 RNA 2 with U28A, C29G, U52A, U53A
B27: target 1 MT 5'PFS UCG 3'PFS ACU (mixed)
RNA 1: B1 RNA 1
RNA 2: B1 RNA 2 with C27U, U28C, C29G, U52A, U53C, C54U
B28: target 1 C4G,A20U (mixed)
RNA 1: B1 RNA 1
RNA 2: B1 RNA 2 with C27G, C29A, A32U, C48G, U52C, U53C, C54G
B29: target 1 MT 5'PFS CCC 3'PFS AGC (mixed)
RNA 1: B1 RNA 1
RNA 2: B1 RNA 2 with U28C, U52A, U53G
B30: target 1 MT 5'PFS CCG 3'PFS UGC (mixed)
RNA 1: B1 RNA 1
RNA 2: B1 RNA 2 with U28C, C29G, U53G
B31: target 1 MT 5'PFS GUA 3'PFS GUG (mixed)
RNA 1: B1 RNA 1
RNA 2: B1 RNA 2 with C27G, C29A, U52G, C54G
B32: target 1 MT 5'PFS GCG 3'PFS CGA (mixed)
RNA 1: B1 RNA 1
RNA 2: B1 RNA 2 with C27G, U28C, C29G, U52C, U53G, C54A
B33: target 1 C2G,G5C (mixed)
RNA 1: B1 RNA 1
RNA 2: B1 RNA 2 with C27G, C29A, G47C, C50G, U52C, U53C, C54G
B34: target 1 C4U,A9G (mixed)
RNA 1: B1 RNA 1
RNA 2: B1 RNA 2 with C27G, C29A, A43G, C48U, U52C, U53C, C54G
B35: target 1 MT 5'PFS CAG 3'PFS UCC (mixed)
RNA 1: B1 RNA 1
RNA 2: B1 RNA 2 with U28A, C29G, U53C
B36: target 1 MT 5'PFS GCA 3'PFS CGG (mixed)
RNA 1: B1 RNA 1
RNA 2: B1 RNA 2 with C27G, U28C, C29A, U52C, U53G, C54G
B37: target 1 MT 5'PFS GUA 3'PFS GUU (mixed)
RNA 1: B1 RNA 1
RNA 2: B1 RNA 2 with C27G, C29A, U52G, C54U

For this data set, the target named is T1, EsCas13d, nuclease-dead. As to the kind of experiment: crRNA (strand 1, pre-loaded); Mg2+; 40 mM Tris-HCl pH 7.5, 150 mM NaCl, 6 mM MgCl2, 1 mM DTT, 0.1% Tween-20, 0.2 mg/ml BSA; 25 C; 10 min per concentration, then washed. Conditions: tags: His6-TwinStrep-SUMO cleaved; N-terminal SNAP kept (SNAP-Surface 488); label: 3' end held by stalled T7 RNA polymerase.
As to B1, the Kd (as a rule, the equilibrium constant for the complex coming apart) is roughly 55 nM.
In turn, B2 registered a Kd of 40 ± 15 nM.
Molecule B3 displayed a dissociation constant (Kd) of 9.9 ± 1.85 nM.
The value for B4 was roughly 85 nM; that for B5 was 16 ± 1.5 nM.
The result for B6 reads roughly 23.5 nM.
In the case of B7, the affinity, expressed as Kd, was 9.4 ± 0.33 nM.
The value for B8 was 19.9 ± 2.05 nM.
With B9, the equilibrium dissociation constant (Kd) is roughly 17.5 nM.
B10 gave a Kd of roughly 21 nM.
The result for B11 reads roughly 80 nM; that for B12, 28 ± 5.5 nM.
With B13, the affinity, expressed as Kd, was 41 ± 11 nM.
The value for B14 was 78 ± 21 nM.
The result for B15 reads 11.3 ± 0.8 nM.
The molecule B16 came in with a Kd of 23 ± 5.5 nM.
The value for B17 was 9.35 ± 1 nM.
As to B18, the dissociation constant (Kd) is roughly 70 nM.
The value for B19 was roughly 43.5 nM.
With B20, binding was put at a Kd of 14.8 ± 0.95 nM.
On to B21, for which the affinity, expressed as Kd, was 9 ± 1.75 nM.
Turning to B22, the affinity, expressed as Kd, was 9.95 ± 2.7 nM.
The value for B23 was 19 ± 7 nM; that for B24 was 67.5 ± 27.5 nM.
The result for B25 reads 34 ± 10.5 nM.
The result for B26 reads 75 ± 36.5 nM; that for B27, 28 ± 10 nM; that for B28, 17.5 ± 2 nM.
For B29, the Kd is roughly 40 nM.
With B30, the dissociation constant Kd turned out to be 2.6 ± 0.75 nM.
The molecule B31 had a Kd of 8.5 ± 0.95 nM.
Regarding B32, binding was put at a Kd of 49.5 ± 17 nM.
The result for B33 reads 14 ± 1.1 nM; that for B34, 42 ± 8 nM; that for B35, 11.9 ± 5.25 nM.
The result for B36 reads 25 ± 6.5 nM.
The result for B37 reads 11.4 ± 1.05 nM.
